The results in this text go back to a protein production outcome set (Wang et al. 2014).
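Also: failed if final PepcDB status was selected cloned or expressed and not failed if soluble or beyond.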

A short description of this series: label from the status in PepcDB records.
As to “MKGMKYHDYIWDLGGTLLDNYETSTAAFVETLALYGITQDHDSVYQALKVSTPFAIETFAPNLENFLEKYKENEARELEHPILFEGVSDLLEDISNQGGRHFLVSHRNDQVLEILEKTSIAAYFTEVVTSSSGFKRKPNPESMLYLREKYQISSGLVIGDRPIDIEAGQAAGLDTHLFTSIVNLRQVLDI”, the protein production entry is recorded as “not failed”.

Regarding “MKHEWRKFEKELYGVKAKPIFLEVEEQRFITIKGKGNPNDQDFSNRVSALYALAYGIKMAYKQAMKTEQDDRAVTDFAVYPLEGLWQQAKDAKEDTLEKDKLSYTIMIRQPEFITKELVDQALDRVKIKKPNSFYESISFESIKDGKCIQVLHIGSYDDEPQSFAKMDAFAKEHGLKRSSDIHREIYLSNAQRTEKSKLKTILRYQVEEK”, the protein production entry is recorded as “failed”. For “MKHMEKFANHFGYNRMFAKDQLTLGVHIPIENYQFHAPTMEKQVELVQKAEQYGFTGVWLRDVLLQDPDFGDPATGQIYDMMIYLTYLASKTEKIAFGTSATVLSLRHPLRVAKEIATLDQLFPERIMLGVSSGDRRADFKALGVSHETRGEKFREAFAYLEEILYKNFPSIQSTLGEVHGANLVPKPSKRVPTFITGFSQQNMEWFAEHGDGWMYYPRSPVHQAGAIGQWRELVEDYHPDVFKPFIQPMHLDLSEDPNERPTPIRLGYRTGRKALIELLDIYKSIGVNHLFLALFDGQRPADEVLDELGEEVLPHFPAL”, the protein production entry is “not failed”. The entry for “MKHPLQDMFTSAIEAVARDSGWAELSAVGSYLAKNDPSFDPRNWGHGRLSQMVKKLDFLTVQESRNGSKLHSEIRLRHDGLEHHHHHH” is “not failed”; for “MKHYFSCLKGDTIKAIFLVCLAVGVVGMSYGSLAMAYGFPLWVPFVLSIFVLAGASEFMFIGIVASGGNPLAAAAAGLLVNARHVPFGVTVRDLVGTRAASFFGCHIMNDESVVFGLSQKTPEQRKAAYWLCGLGVALFWPIGTLIGAGVGKLLPAPETIGLDAVFPAILLALVIPAFKNRTTLIRGCSGAALSLAAVPFVAAGLPVLLSLLGLLARKK” it is “failed”. Regarding “MKIALIGASGYVGSALLKEALSRGHHVTALVSRPERIAAQANLAAAKVDVQDSAQLAEQLKGFDAVLSAFSGHAQAEQFDYFVKGIRSIIAAAKAAQAPRLLVVGGAGSLEVAPGVQLVDTPEFPEQWKASALGAREALNLLRAETELNWTLLSPSAMLQPGQRTGQFRLGKDQLLVDAEGNSHISVEDYAVAMIDELEKGEHQRSRFTVGYLEHHHHHH”, the protein production result is listed as “not failed”. Under “MKIATYNVRVDTEYDQDWQWSFRKEAVCQLINFHDWSLCCIQEVRPNQVRDLKAYTTFTCLSAEREGDGQGEGLAILYNEQKVQAIDTGYFWLSETPQQPSIHPEAGCPRIALWGLFKETTQNTPFLVINVHLDHISAHARLAGMTVILEELHDKIAQYPTLLMGDFNAESGEEVHQLVQKKFQDSKNLATHYGPRGTFQNFTYTKPWAELEEIDYIYVKGWQVQQTASLTDSIDGRFPSDHFPLEAEV” stands “not failed”; under “MKIAVLGATGRAGSAIVAEARRRGHEVLAVVRDPQKAADRLGATVATLVKEPLVLTEADLDSVDAVVDALSVPWGSGRGYLHLDFATHLVSLLRNSDTLAVFILGSASLAMPGADHPMILDFPESAASQPWYDGALYQYYEYQFLQMNANVNWIGISPSEAFPSGPATSYVAGKDTLLVGEDGQSHITTGNMALAILDQLEHPTAIRDRIVVRDADLEHHHHHH”, “not failed”; under “MKIDILDKGFVELVDVMGNDLSAVRAARVSFDMGLKDEERDRHLIEYLMKHGHETPFEHIVFTFHVKAPIFVARQWFRHRIASYNELSGRYSKLSYEFYIPSPERLEGYKTTIPPERVTEKISEIVDKAYRTYLELIESGVPREVARIVLPLNLYTRFFWTVNARSLMNFLNLRADSHAQWEIQQYALAIARIFKEKCPWTFEAFLKYAYKGDILKEVQV”, “not failed”.

On to “MKIDLIISADDIKEEKVKNKTAVVIDMLRATSVITTALNNGCKRVVPVLTVEEALKKVKEYGKDAILGGERKGLKIEGFDFSNSPMEYTEDVVKGKTLIMTTTNGTRAIKGSETARDILIGSVLNGEAVAEKIVELNNDVVIVNAGTYGEFSIDDFICSGYIINCVMDRMKKLELTDAATTAQYVYKTNEDIKGFVKYAKHYKRIMELGLKKDFEYCCKKDIVKLVPQYTNGEIL”, for which the protein production entry was “not failed”. For “MKIGIMSDTHDHLPNIRKAIEIFNDENVETVIHCGDFVSLFVIKEFENLNANIIATYGNNDGERCKLKEWLKDINEENIIDDFISVEIDDLKFFITHGHHQSVLEMAIKSGLYDVVIYGHTHERVFEEVDDVLVINPGECCGYLTGIPTIGILDTEKKEYREIVLE”, the protein production result was “not failed”. On to “MKIGVIQASTRTDLNQLLFEAVKQAAGNQHEIVNFGVFPQETENYSYVEVAIMISLLIETGAIDFMVSGCSSGQGMMMACNSLPGLQAGFIQTPQDAFLFGRINNGNVASLSLGLNFGWAGELNLQYALNELFHGEFGIGYPPEVAERKREEAQLLLTLNDITKKSFLEIIDQLDKALLFKILKRKDLTAYLFDYGSNSLLLERLQFFRN”, for which the protein production result is reported as “failed”. Under “MKIIAFYLPQFHQIKENDRWWGKGFTEWTNTKSAQPLFSGHYQPREPYQDFYYDLTTPSVRKWQAEIAKAYGIYGFCYYHYWFKGKRLLETPFNEVLKMKEPDFPFCLSWANEPWTKSWDGLDKHILMPQDYGDISDWKEHFDYLLQAFQDERYIYIDDKPLFIIYRPGHIPDCEKMLNYWNALARANGLKGIYFAETLNSFPLPNINGFDASIQFEPFYTIAHDSSSDINKVIYDSDMQLNVWDYDKVWMYILQRSLPKKKTFPGAFVDWDNTARRKNANSSIFVGSTPEKFTIYLSKQIHRTYSFYNSEFLFINAWNEWAEGTYLEPDKKYGFSYLEGVKNAIDRGMKAYKKDESFLEHHHHHH” stands “not failed”. “MKIIGIIQARTGSKRLKNKVLLKLGDRCILEILLERLKKSKKLDDIIVATTIKKEDNAIVELCNSLGVNVFRGSEKDVLDRFYNASKFYSGDVIVRITGDNPLTSIELIDKQVEYLLKNNFDYVSTKNIILGLSSEVFTFDALEKAWKNAKEKYQREHVTPYIYENPNLFKVFYLEPPEYLKREGIRLTIDTIKDFKLYLELQKHFDLINVDIRQIIDFLDKNPQIKNINSNVRQKSYREVEE”: the protein production result was “failed”. The entry for “MKIILANPRGFCAGVDRAISIVELALEIHGAPIYVRHEVVHNRFVVNGLRERGAIFVEELSEVPDGAIVIFSAHGVSQAVRQEAKDRNLKVFDATCPLVTKVHMQVARASRKGTKAILIGHKGHPEVEGTMGQYSNEDGGIFLIEKVEDIARLPMQENDNLTFMTQTTLSLDDTAETIAALKEKYPAIQGPHKNDICYATTNRQEAVRELAKLSDLVLVVGSKNSSNSNRLAELASRMGVKSQLLDEPADIQADWFNDVKTIGITAGASAPEELGQSIISRLKRFGAN” is “failed”; for “MKIIVVGCGKIGYTIAKVLSEKKDIDVTVVDNNPNIFDKMVEPIDVIFISGNGANEKTLIEAGAKDADLIVSTTNADELNVLCCIMAERLGTKHSIARVRNPEYMLEFNKLWKDLGIDMVINPERQTAREISRILRYHAADDIVTFIGDRVELVSFKVSETPEYFVGKSVSQIFDNNMGILLAIVERENQALIPNGDLIFKESDIIWIMGRPSQIMKFFTLIKKGPKKGQEIMVIGGGKITHYLVELLNRHTTKANIKIIKKDRSKCESLYEALSSASLERRCLFIHGDGTNEELLIDEGIDTMDACVCLTDRDEENVFISLYAMRRGVKKVITKINYIHQNMAKSLGLWLGNIITPQYITAKTVIRYVDGLSGAVGRNIMTIHQIYSGDDGNVDAIEFQVNKKAKCIDTPIKKLKLKKGILIGCISRDFDIIIPSGETEIHIGDRVIIFSKNNDIRDLDDILEN” it is “failed”; for “MKIKPPLPTVTRTHARALRKELTDAERALWRCLRSNQLHDFKFRRQHPIPPYIADFCCIDAALIIELDGSQHQASSDQARTRWLQSKGWTVLRFWNNDVLFSLDAVVETIFKMVATPYPHPNPSPGGRGA” it is “failed”.

Take “MKILSVSYIYLLMGISSYSYANFDLGINEFNAPNELTELSELNTSNDNNAIIELINSTNSQVTIIQHNVNKTGSNKAKVKQTGYDNTAAVMQLGSNNVGLIAQNGTNNLATLKQLGFNHEGAILQEGNDNIAHLVQTGNGKQNVVNQTGDSNIAAAVNKNNGAGFSINQTGNQGIILVNGMDRFISIVN”: the protein production result is on record as “failed”. The entry for “MKILVAFDGSDGAQKALGFAINFSKDCERMIVLYVSRDIISESGRLTYIPDTALERRDSEDEAILARARSILASSNIPFEIIKKNSDGVDVSKVIADTAKELECNMIITGTRKLRGLSKYLLGSVSAGIIAISNVPVIVVP” is “failed”. For “MKILVCITHVPDTTSKITFADNKFNTAGVQFIIGPYDEYALSRAVELKEQSGGTVTVLNVGDAETEPTIRKALAIGADDAIRINAVPKDAGFVAAQIAAVAKSGGYDLILMGRESIDYNGGLVHGLVADALGMPCVTPIMKLDIENGVAKMTREIEGGKESVECALPFVAGCQEPIAEWKIPNMRGIMSARTKPLNVVEPVVVADDVVYGTFSLPAPKGACKMIDAANPEELLTLLRNEAKVL”, the protein production entry is “failed”.

With “MKILWLIILVNLFLSCGNESKEKSNLGLRLRELEISGGGSESKIEVYKEFIEKEDKNILKIVNSIDKKARFFNLIGLEFFKLGQYGPAIEYFAKNLEINPNNYLSHFYIGVASYNLAKNLRVKDEVEKYIILAENSFLKSLSIRDDFKDSLFAISNMYVYDLDKQLEAKNYLNKLGDMGEDYFEFLMLRGANYYSLGDLGNAILFYDKASKKASTEEQKEGVSRIMSNLK”, the protein production entry is “failed”. The entry for “MKILYIVLDGAADSPTSPRKTLEEASKPNIDSLGSHAVCGMVYTVKPGVAPQSDYATLSLLGYNPDEYYPGRGPLEAFGAGIEMRRGDIALRANFATVDPGTLRIIDRRVGRSLTSREARELASAVDGMELEDGEGTALFRATIGHRGVLVLRHRSKPLSDAISNTDPAYERRGRFSVALEKYEPFIKLSNPLVEDEAAVLAARMLNEFTLKAVEILDSHPVNLAREKRGLLKANAILSRDAGGLPEEKPPSFQERFGLRGASIVEMVVERGISRYIGLDDIRVEIEGRAREEVYREEAARAVEALETHDLVYVHLKGPDEPGHDGSFEGKIRAVEDIDKHFFAPLLDRLSSAGLEPAFVVTSDHATPWDVGAHSGDPVPLMISHQSIQGSIGKFSETVCLRGRLGTIIGGYRIIPKTLSLLAG” is “not failed”. With “MKIMKTFALSSIASAAMLFCSSALAADGTITVDGKVTDRTCTINGGTPNFSVTMPTVSFSSLNGEGKTSARTPFTIELTNCTAGSTVATYFEPGPAVDINTSRLINQAPTASAATNVQVQLLGSNGSVIPIKAVGTTGAQDNSQWVAVNASGAASMHYYTEYYATGVSTAGSVVTNIQYTIIYQ”, the protein production entry is “failed”. Under “MKIMTKALNRTTLGLALGLASSQLLAAGFALNEQSISGMGTGFAGRSSSADDASTVFGNPAGMSRIKREQISVGAAAVIAKTDIDNGRGTFGGSNDGDMVPVVGVPMGYYVKPIDDHWAFGLGVYVPFGLVTDYEKGFAGRYWGDKSHVQIVTFQPTVSYAFNDKVSIGFGPTINRIDGELTSAVPNRASLGTNDGKVKIKGDDTAIGFNAGILVQATDTTRLGLTYHSKVDYKLEGKTKVEGSGFGPFGGQKYDASLDISTPESVDFSITQQLDENWTVYAGSTWTRWSRLKDITVENSGVPTALASSIGTITEEQDWHDTWAHAIGASYKVNKEWTLRTGFSVDQSPTNNVNRSPRIPTGDRKIISFGAGWSPTDDLTIDVAYSYLREDETKIRDSSATKGSYSADYRNTAHGLGTSVTYRF” stands “failed”.
